Experimental data: publication PMC12830090

Columns and labels:
Experiment in all cases: NMR
His33 = His33 (UniProt position 33, TDWCGHCQAAQ); conditions: 298 K
Cys34 = Cys34 (UniProt position 34, DWCGHCQAAQP); conditions: 298 K; reduced (dithiol) Patrx2, with DTT
Cys31 = Cys31 (UniProt position 31, FGTDWCGHCQA); conditions: 298 K; reduced (dithiol) Patrx2, with DTT

Substance: Patrx2 (atypical thioredoxin, PA2694) (Pseudomonas aeruginosa)
- pKa (His33; oxidised (C31-C34 disulfide) Patrx2, without DTT): less than 5
- pKa (His33; reduced (dithiol) Patrx2, with DTT): 6.3
- pKa (Cys34): greater than 11.5
- pKa (Cys31): 5.8
